Molecular target: His-tagged mouse Endophilin A1 SH3 domain (mouse) (UniProt Q62420)
Experiment: ELISA; His-tagged mouse Endophilin A1 SH3 domain coated on a 96-well plate, overlaid with increasing concentrations of GST-tagged Dyn1-PRR peptides; two experiments of four replicates

His-tagged mouse Endophilin A1 SH3 domain (mouse), sequence (Q62420 290-349): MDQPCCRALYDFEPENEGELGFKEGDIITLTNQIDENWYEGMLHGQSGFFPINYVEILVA

fold lower affinity than xA (746–864): 3 fold
Substance: GST-Dyn1xB-PRR (full-length proline-rich region of Dynamin 1 splice variant xB, 746-851) (domain or fragment)

— article doi:10.1101/2023.09.21.558797
